Broadly, the Kd is the equilibrium constant for the complex coming apart. The low end stands for higher affinity, the high end for lower affinity.

The text below walks through data of publication PMC6910952 (Nature Communications, 2019).

The target in this assay is T1, His6-yNpl4^113–580 M357A (Saccharomyces cerevisiae, UniProt P33755 113-580, M357A).
T1 construct: also called yNpl4 M357A; source: E. coli Rosetta (DE3), purified (Ni-NTA, Resource Q); not shown: His6, N-terminal, kept
T1 sequence (looked up): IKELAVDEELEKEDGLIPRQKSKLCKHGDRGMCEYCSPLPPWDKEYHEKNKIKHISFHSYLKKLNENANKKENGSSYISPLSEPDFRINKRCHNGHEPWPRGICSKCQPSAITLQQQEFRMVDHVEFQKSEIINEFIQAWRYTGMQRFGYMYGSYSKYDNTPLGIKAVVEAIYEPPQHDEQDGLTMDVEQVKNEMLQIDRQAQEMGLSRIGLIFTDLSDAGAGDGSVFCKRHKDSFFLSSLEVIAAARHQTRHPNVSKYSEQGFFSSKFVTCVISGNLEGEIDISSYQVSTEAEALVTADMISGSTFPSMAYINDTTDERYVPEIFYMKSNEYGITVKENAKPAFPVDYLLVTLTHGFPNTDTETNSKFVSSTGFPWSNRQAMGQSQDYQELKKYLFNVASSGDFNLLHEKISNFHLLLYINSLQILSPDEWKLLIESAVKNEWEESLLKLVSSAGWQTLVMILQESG
Briefly: fluorescence polarisation; fluorescence anisotropy; 1 nM FlAsH-labeled His6-SUMO-yUfd1 peptide, His6-yNpl4^113–580 in two-fold dilution series; 25 °C; 50 mM Tris-HCl pH 8.0, 100 mM NaCl, 5 mM β-mercaptoethanol, 0.1 g/L BSA. The note with it: both partners purified.

No end group written: not given here.

B1: FlAsH-labeled His6-SUMO-yUfd1^288–305-GWCCPGCC (peptide, UniProt P53044 288-305, looked up)
chain: {His6-SUMO}-EPAKLDLPEGQLFFGFPMGWCCPGCC
modifications: cysteine pairing not given here; also: FlAsH label bound to CCPGCC motif
notes: the assay methods print 280-305; also called yUfd1-FlAsH; yUfd1 WT; source: E. coli Rosetta (DE3) (pCold-SUMO), purified (Ni-NTA, Resource Q), labeled with FlAsH-EDT2; not shown: His6, N-terminal, kept; SUMO, N-terminal, kept
With B1, the Kd is 164 nM.
